Laboratory results reported in US20100322931A1 (AbbVie / Abbott, published 2010).

Molecular target: T1, VEGF (R&D systems, Minneapolis, Minn.) (UniProt P15692-4 27-191, limits assumed)
T1 construct: Soluble analyte in the BIAcore assay; also called vascular endothelial growth factor; VEGFA
Experiment: SPR (BIAcore 2000/3000), antibody captured on anti-human Fc, VEGF as analyte, 1:1 Langmuir fit; variant corresponding to SEQ ID NO:82, the tightest of the variants
Procedure: RL was kept low to minimize avidity due to the dimeric nature of VEGF. No capture of the antibody was made on the reference surface to serve as a negative control. Subsequently, VEGF was injected to all flow cells at a flow rate of 50 μL/min for two minutes to monitor association followed by a 25-minute flow of HBS-P running buffer (10 mM HEPES, 150 mM sodium chloride, 0.005% P-20, pH 7.4) to monitor the dissociation phase. At each cycle, VEGF, in 6 different concentrations of VEGF ranging between 0 nM and 512 nM and at four-fold increments, was injected over the surface. […] Binding data were fit to the 1:1 Langmuir model to extract binding constants from the BIAevaluate software. Double referencing was applied in each analysis to eliminate background responses from the reference surface and buffer only control. All the binding kinetics data were analyzed at least three separate determinations.

T1 sequence (P15692 other isoform, or with tags, fused parts or gaps limits assumed): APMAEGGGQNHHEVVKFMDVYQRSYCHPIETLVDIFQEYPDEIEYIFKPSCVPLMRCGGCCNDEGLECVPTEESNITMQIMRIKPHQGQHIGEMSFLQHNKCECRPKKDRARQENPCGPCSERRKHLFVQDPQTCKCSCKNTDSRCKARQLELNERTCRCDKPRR

B1: bevacizumab variant corresponding to SEQ ID NO:82 (antibody, V domains shown)
VH: EVQLVESGGGLVQPGGSLRLSCAASGYTFTFYGMNWVRQAPGKGLEWVGWINTYTGEPTYAADFKRRFTFSLDTSKSTAYLQMNSLRAEDTAVYYCAKYPDYDGGSHWYFDVWGQGTLVTVSS
VL: DIQMTQSPSSLSASVGDRVTITCSASQDISNYLNWYQQKPGKAPKVLIYFTSSLHSGVPSRFSGSGSGTDFTLTISSLQPEDFATYYCQQYSTVPWTFGQGTKVEIKR
notes: Variant VH cloned with the unmodified VL into a human IgG1-containing plasmid and expressed in 293T/17 cells
Kd: 0.08 nM
